The results in this text go back to publication PMC4576867 (The Journal of Cell Biology, 2015).

The data set deals with the molecule itself. Briefly: AUC.

For orientation: stoichiometry N means the number of molecules, sites or subunits per partner or assembly.

B1: cytosolic domain of S. cerevisiae Sey1p (residues 1-680) (domain or fragment, UniProt Q99287 1-680, looked up)
chain: MADRPAIQLIDEEKEFHQSALQYFQQCIGNRDVGLDYHVISVFGSQSSGKSTLLNVLFNTNFDTMDAQVKRQQTTKGIWLAHTKQVNTTIEIDNDRPDIFVLDVEGSDGSERGEDQDFERKAALFAIAVSEVLIVNMWEQQIGLYQGNNMALLKTVFEVNLSLFGKNDNDHKVLLLFVIRDHVGVTPLSSLSDSVTRELEKIWTELSKPAGCEGSSLYDYFDLKFVGLAHKLLQEDKFTQDVKKLGDSFVMKGTENYYFKPQYHHRLPLDGWTMYAENCWDQIERNKDLDLPTQQILVARFKTEEISNEALEEFISKYDESIAPLKGNLGSLTSQLVKLKEECLTKYDEQASRYARNVYMEKREALNTKLNSHISGTINEFLESLMEKLWDDLKLEVSSRDKATTSFVESVAAGKSKIEKEFNESMETFKKLGLLISNEEITCKFSDDIEERIKQLRDAELKAKIGRIKKNLVPELKDHVIHLLSHPSKKVWDDIMNDFESTIKDNISAYQVEKDKYDFKIGLSESENAKIYKNIRILAWRTLDTTVHDYLKIDTIVSILRDRFEDVFRYDAEGSPRLWKTEEEIDGAFRVAKEHALEVFEVLSLAVTSDNVEIIPDVPMAEEESGEDNEIYRDNEGVFHSRRFAHILTELQKENVLDQFRRQINITVLDSKRSIITTRT
Take B1: the “stoichiometry N” value stood at 2.
